B1: HDV Ribozyme (parent)
chain: GGCCGGCAUGGUCCCAGCCUCCUCGCUGGCGCCGGCUGGGCAACAUUCCGAGGGGACCGUCCCCUCGGUAAUGGCGAAUGGGACCCA

Variants of: B1
Experiment: self-cleavage, relative activity (ratio to wild type); higher = more cleavage; co-transcriptional

Variant	self-cleavage
GGCCGGCAUGGUCCCAGCCUCCUCGCUGGCGCCGGCUGGGCAACAUUGCAAGGGGACCGUCCCCUCGGUAAUGGCGAAUGGGACCCA	0.798
GGCCGGCAUGGUCCCAGCCUCCUCGCUGGCGCCGGCUGGGCAACAUUGCCAGGGGACCGUCCCCUCGGUAAUGGCGAAUGGGACCCA	0.939
GGCCGGCAUGGUCCCAGCCUCCUCGCUGGCGCCGGCUGGGCAACAUUACGAGGGGACCGUCCCCUCGGUAAUGGCGAAAGGGACCCA	0.974
GGCCGGCAUGGUCCCAGCCUCCUCGCUGGCGCCGGCUGGGCAACAUUGCGAGGGGGCCGUCCCCUCGGUAAUGGCGAAUGGGACCCA	1.03
GGCCGGCAUGGUCCCAGCCUCCUCGCUGGCGCCGGCUGGGCAACAUUGCGAGGGGACCGUCCCCUCGGUAAUGGCGAAUGGGACGCA	0.875
GGCCGGCAUGGUCCCAGCCUCCUCGCUGGCGCCGGCUGGGCAACAUUGCGAGGGGACCGUCCCCUCGGUAAUGGCGAAUGGGACACA	0.8
GGCCGGCAUGGUCCCAGCCUCCUCGCUGGCGCCGGCUGGGCAACAUUACGAGGGGACCGUCCCCUCGGUAAUGGCGAAUGGAACCCA	0.332
GGCCGGCAUGGUCCCAGCCUCCUCGCUGGCGCCGGCUGGGCAACAUUACGAGGGGACCGUCCCCUCGGUAAUGGCGAAUGGUACCCA	0.496
GGCCGGCAUGGUCCCAGCCUCCUCGCUGGCGCCGGCUGGGCAACAUUGCGAGGGGACCGUCCCCUCGGUCAUGGCGAAUGGGACCCA	0.6
GGCCGGCAUGGUCCCAGCCUCCUCGCUGGCGCCGGCUGGGCAACAUUACGAGGGGACCGUCCCCUCGGUAAAGGCGAAUGGGACCCA	0.456
GGCCGGCAUGGUCCCAGCCUCCUCGCUGGCGCCGGCUGGGCAACAUUACGAGGGGACCGUCCCCUCGGUAAGGGCGAAUGGGACCCA	0.525
GGCCGGCAUGGUCCCAGCCUCCUCGCUGGCGCCGGCUGGGCAACAUUGCGAGGGGACCGUACCCUCGGUAAUGGCGAAUGGGACCCA	0.927
GGCCGGCAUGGUCCCAGCCUCCUCGCUGGCGCCGGCUGGGCAACAUUGCGAGGGGACCGUUCCCUCGGUAAUGGCGAAUGGGACCCA	0.876
GGCCGGCAUGGUCCCAGCCUCCUCGCUGGCGCCGGCUGGGCAACAUUGCGAUGGGACCGUCCCCUCGGUAAUGGCGAAUGGGACCCA	0.612
GGCCGGCAUGGUCCCAGCCUCCUCGCUGGCGCCGGCUGGGCAACAUUACGAGGGGACCGUCCCCCCGGUAAUGGCGAAUGGGACCCA	0.98
GGCCGGCAUGGUCCCAGCCUCCUCGCUGGCGCCGGCUGGGCAACAUUACGAGGGGACCGUCCCCGCGGUAAUGGCGAAUGGGACCCA	0.954
GGCCGGCAUGGUCCCAGCCUCCUCGCUGGCGCCGGCUGGGCAACAUUGCGAGGGGACCUUCCCCUCGGUAAUGGCGAAUGGGACCCA	1.07
GGCCGGCAUGGUCCCAGCCUCCUCGCUGGCGCCGGCUGGGCAACAUUGCGAGGGGACCAUCCCCUCGGUAAUGGCGAAUGGGACCCA	0.92
GGCCGGCAUGGUCCCAGCCUCCUCGCUGGCGCCGGCUGGGCAACAUUGCGAGGGGACCGUCCCCUCGGUAAUGGAGAAUGGGACCCA	0.175
GGCCGGCAUGGUCCCAGCCUCCUCGCUGGCGCCGGCUGGGCAACAUUGCGAGGGGACCGUCCCCUCGGUAAUGGUGAAUGGGACCCA	0.285
GGCCGGCAUGGUCCCAGCCUCCUCGCUGGCGCCGGCUGGGCAACAUUGCGAGGGGACCGUCCCCUCGGUAAUGGCGAAUGUGACCCA	0.424
GGCCGGCAUGGUCCCAGCCUCCUCGCUGGCGCCGGCUGGGCAACAUUGCGAGGGGACCGUCCCCUCGGUAAUGGCGAAUGGGACCUA	0.932

Variant	self-cleavage
GGCCGGCAUGGUCCCAGCCUCCUCGCUGGCGCCGGCUGGGCAACAUUGCGAGGGGACCGUCCCCUCGGUACUGGCGAAUGGGACCCA	1.03
GGCCGGCAUGGUCCCAGCCUCCUCGCUGGCGCCGGCUGGGCAACAUUGCGAGGCGACCGUCCCCUCGGUAAUGGCGAAUGGGACCCA	0.665
GGCCGGCAUGGUCCCAGCCUCCUCGCUGGCGCCGGCUGGGCAACAUUGCGAGGUGACCGUCCCCUCGGUAAUGGCGAAUGGGACCCA	0.726
GGCCGGCAUGGUCCCAGCCUCCUCGCUGGCGCCGGCUGGGCAACAUUGCGAGGGGACCGUCCCCACGGUAAUGGCGAAUGGGACCCA	0.511
GGCCGGCAUGGUCCCAGCCUCCUCGCUGGCGCCGGCUGGGCAACAUUGCGAGGGGACCGUCCCCCCGGUAAUGGCGAAUGGGACCCA	0.931
GGCCGGCAUGGUCCCAGCCUCCUCGCUGGCGCCGGCUGGGCAACAUUGCGAGGGGACCGUCCCCUCGGUAAUGGCUAAUGGGACCCA	0.997
GGCCGGCAUGGUCCCAGCCUCCUCGCUGGCGCCGGCUGGGCAACAUUGCGAGGGGACCGUCCCCUCGGUAAUGGCAAAUGGGACCCA	1.12
GGCCGGCAUGGUCCCAGCCUCCUCGCUGGCGCCGGCUGGGCAACAUUGCGAGGGGACCGUCCCCUCGGUAAUGGCCAAUGGGACCCA	0.867
GGCCGGCAUGGUCCCAGCCUCCUCGCUGGCGCCGGCUGGGCAACAUUGCGAGGGAACCGUCCCCUCGGUAAUGGCGAAUGGGACCCA	0.888
GGCCGGCAUGGUCCCAGCCUCCUCGCUGGCGCCGGCUGGGCAACAUUGCGAGGGGACCGUCCCCUGGGUAAUGGCGAAUGGGACCCA	0.906
GGCCGGCAUGGUCCCAGCCUCCUCGCUGGCGCCGGCUGGGCAACAUUGCGAGGGGACCGUCCCCUCGGUAAUCGCGAAUGGGACCCA	0.403
GGCCGGCAUGGUCCCAGCCUCCUCGCUGGCGCCGGCUGGGCAACAUUGCGAGGGGACCGUCCCCUCGGUAAUAGCGAAUGGGACCCA	0.623
GGCCGGCAUGGUCCCAGCCUCCUCGCUGGCGCCGGCUGGGCAACAUUGCGAGGGGACCGUCCCCUCGGUAAUUGCGAAUGGGACCCA	0.506
GGCCGGCAUGGUCCCAGCCUCCUCGCUGGCGCCGGCUGGGCAACAUUGCGAGGGGACCGUCCCCUCGUUAAUGGCGAAUGGGACCCA	0.88
GGCCGGCAUGGUCCCAGCCUCCUCGCUGGCGCCGGCUGGGCAACAUUGCGAGGGGACCGUCCCCUCGAUAAUGGCGAAUGGGACCCA	0.723
GGCCGGCAUGGUCCCAGCCUCCUCGCUGGCGCCGGCUGGGCAACAUUGCGAGGGGACAGUCCCCUCGGUAAUGGCGAAUGGGACCCA	1.14
GGCCGGCAUGGUCCCAGCCUCCUCGCUGGCGCCGGCUGGGCAACAUUGCGAGGGGACCGUCCCCUCGGUAAUGGCGAAUAGGACCCA	0.4
GGCCGGCAUGGUCCCAGCCUCCUCGCUGGCGCCGGCUGGGCAACAUUGCGAGGGGACCGUCCCCUCGGUAAUGGCGAAUGGGAGCCA	0.646
GGCCGGCAUGGUCCCAGCCUCCUCGCUGGCGCCGGCUGGGCAACAUUGCGUGGGGACCGUCCCCUCGGUAAUGGCGAAUGGGACCCA	1.02
GGCCGGCAUGGUCCCAGCCUCCUCGCUGGCGCCGGCUGGGCAACAUUGCGGGGGGACCGUCCCCUCGGUAAUGGCGAAUGGGACCCA	0.997
GGCCGGCAUGGUCCCAGCCUCCUCGCUGGCGCCGGCUGGGCAACAUUGCGCGGGGACCGUCCCCUCGGUAAUGGCGAAUGGGACCCA	0.88
GGCCGGCAUGGUCCCAGCCUCCUCGCUGGCGCCGGCUGGGCAACAUUGCGAGGGGACCGUCCCCUCGGUAAUGGCGAAUGGGUCCCA	0.554

Variant	self-cleavage
GGCCGGCAUGGUCCCAGCCUCCUCGCUGGCGCCGGCUGGGCAACAUUGCGAGGGGACCGUCCCCUCGGUAAUGGCGAAUGGGGCCCA	0.779
GGCCGGCAUGGUCCCAGCCUCCUCGCUGGCGCCGGCUGGGCAACAUUGCGAGGGGACCGUCCCCUCGGUAAUGGCGAAUGGGCCCCA	0.573
GGCCGGCAUGGUCCCAGCCUCCUCGCUGGCGCCGGCUGGGCAACAUUGCGAGGGGACCGUCCUCUCGGUAAUGGCGAAUGGGACCCA	1.08
GGCCGGCAUGGUCCCAGCCUCCUCGCUGGCGCCGGCUGGGCAACAUUGCGAGGGGACCGUCCACUCGGUAAUGGCGAAUGGGACCCA	0.435
GGCCGGCAUGGUCCCAGCCUCCUCGCUGGCGCCGGCUGGGCAACAUUGCGAGGGGACCGUCCCCUCGGUAAUGUCGAAUGGGACCCA	0.509
GGCCGGCAUGGUCCCAGCCUCCUCGCUGGCGCCGGCUGGGCAACAUUGCGAGGGGACCGUCCCAUCGGUAAUGGCGAAUGGGACCCA	0.344
GGCCGGCAUGGUCCCAGCCUCCUCGCUGGCGCCGGCUGGGCAACAUUGUGAGGGGACCGUCCCCUCGGUAAUGGCGAAUGGGACCCA	1.08
GGCCGGCAUGGUCCCAGCCUCCUCGCUGGCGCCGGCUGGGCAACAUUGCGAGGGGACCGUCCCCUCGGUAAUGGCGAAUGGGACCCU	1.09
GGCCGGCAUGGUCCCAGCCUCCUCGCUGGCGCCGGCUGGGCAACAUUGCGAGGGGACCGUCCCCUCGGUAAUGGCGGAUGGGACCCA	0.755
GGCCGGCAUGGUCCCAGCCUCCUCGCUGGCGCCGGCUGGGCAACAUUGCGAGGGGACCGUCCCCUCGGUAAUGGCGCAUGGGACCCA	0.323
GGCCGGCAUGGUCCCAGCCUCCUCGCUGGCGCCGGCUGGGCAACAUUGCGAGGGGACCGUCCCCUCGGUAAUGGCGAAUGGAACCCA	0.403
GGCCGGCAUGGUCCCAGCCUCCUCGCUGGCGCCGGCUGGGCAACAUUGCGAGGGGACCGGCCCCUCGGUAAUGGCGAAUGGGACCCA	1.01
GGCCGGCAUGGUCCCAGCCUCCUCGCUGGCGCCGGCUGGGCAACAUUGCGAGGGGACCGCCCCCUCGGUAAUGGCGAAUGGGACCCA	0.969
GGCCGGCAUGGUCCCAGCCUCCUCGCUGGCGCCGGCUGGGCAACAUUACGAGGGGACCGUCCCCUCGGUAAUGGCGAAUGUGACCCA	0.338
GGCCGGCAUGGUCCCAGCCUCCUCGCUGGCGCCGGCUGGGCAACAUUACGAGGGGACCGUCCCCUCGGUAAUGGCGAAUGCGACCCA	0.193
GGCCGGCAUGGUCCCAGCCUCCUCGCUGGCGCCGGCUGGGCAACAUUACGAGGGGACCGUCCCCUCGGUAAUGGCGAAUGAGACCCA	0.448
GGCCGGCAUGGUCCCAGCCUCCUCGCUGGCGCCGGCUGGGCAACAUUGCGAGGGGACCGUCCCCUCUGUAAUGGCGAAUGGGACCCA	0.972
GGCCGGCAUGGUCCCAGCCUCCUCGCUGGCGCCGGCUGGGCAACAUUGCGAGGGGACCGUCCCCUCCGUAAUGGCGAAUGGGACCCA	1
GGCCGGCAUGGUCCCAGCCUCCUCGCUGGCGCCGGCUGGGCAACAUUGCGAGCGGACCGUCCCCUCGGUAAUGGCGAAUGGGACCCA	0.776
GGCCGGCAUGGUCCCAGCCUCCUCGCUGGCGCCGGCUGGGCAACAUUGCGAGUGGACCGUCCCCUCGGUAAUGGCGAAUGGGACCCA	0.893
